For test [1], the target named is human gp39 (human) (UniProt P29965).
Test [2] shares this target. This is another data set of the same source.
The target is the same in test [3]. This is another data set of the same source.
For test [4], the target named is gp39-CD8 fusion protein mutant E129/A (murine; human). The experiment in a line: ELISA on captured mutant gp39-CD8.
Test [5] deals with gp39-CD8 fusion protein mutant F201/A-E202/A (murine; human). The experiment in a line: ELISA on captured mutant gp39-CD8. For orientation: In an ELISA, binding on a coated surface is turned into a signal by an enzyme label.
Test [6] deals with gp39-CD8 fusion protein mutant K143/A (murine; human). Kind of test: ELISA on captured mutant gp39-CD8.
Test [7] concerns the target gp39-CD8 fusion protein mutant N180/A (murine; human). The experiment in a line: ELISA on captured mutant gp39-CD8.
Test [8] deals with gp39-CD8 fusion protein mutant S131/A-T135/A (murine; human). Kind of test: ELISA on captured mutant gp39-CD8.
Chain of gp39-CD8 fusion protein mutant S131/A-T135/A (murine; human) (P01731 other isoform, or with tags, fused parts or gaps mutant): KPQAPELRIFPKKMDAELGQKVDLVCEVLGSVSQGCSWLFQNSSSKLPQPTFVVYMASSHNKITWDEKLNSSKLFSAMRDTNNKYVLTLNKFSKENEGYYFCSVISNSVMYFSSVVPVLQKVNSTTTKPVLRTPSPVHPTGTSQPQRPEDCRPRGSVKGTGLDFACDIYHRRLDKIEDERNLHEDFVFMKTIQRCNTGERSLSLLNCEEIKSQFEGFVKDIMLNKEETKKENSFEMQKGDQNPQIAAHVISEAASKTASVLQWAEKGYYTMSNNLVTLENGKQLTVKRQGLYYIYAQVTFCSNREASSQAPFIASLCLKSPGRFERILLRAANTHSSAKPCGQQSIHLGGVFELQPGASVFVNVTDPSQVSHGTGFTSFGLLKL
The target in test [9] is gp39-CD8 fusion protein mutant Y145/A (murine; human). The experiment in a line: ELISA on captured mutant gp39-CD8.
Chain of gp39-CD8 fusion protein mutant Y145/A (murine; human) (P01731 other isoform, or with tags, fused parts or gaps mutant): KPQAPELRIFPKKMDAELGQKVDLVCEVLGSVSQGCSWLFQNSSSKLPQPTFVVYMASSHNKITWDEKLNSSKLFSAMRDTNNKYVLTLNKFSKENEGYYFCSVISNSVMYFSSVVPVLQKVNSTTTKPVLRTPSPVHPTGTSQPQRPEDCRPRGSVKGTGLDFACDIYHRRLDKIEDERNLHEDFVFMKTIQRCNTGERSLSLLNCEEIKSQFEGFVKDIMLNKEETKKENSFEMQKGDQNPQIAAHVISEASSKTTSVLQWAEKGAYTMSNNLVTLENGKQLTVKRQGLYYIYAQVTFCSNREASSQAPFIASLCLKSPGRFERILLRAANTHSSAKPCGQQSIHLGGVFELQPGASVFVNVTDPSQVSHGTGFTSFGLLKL
Test [10] concerns the target human gp39 (human) (UniProt P29965). Kind of test: Scatchard transformation, BMS-10 Jurkat cells.
Test [11] has the same target. Kind of test: saturation binding of iodinated protein to gp39+ BMS-10 Jurkat cells.
The target is the same in test [12]. Kind of test: saturation binding of radiolabeled protein to Jurkat cells constitutively expressing gp39.

Chain of human gp39 (human) (P29965 whole entry): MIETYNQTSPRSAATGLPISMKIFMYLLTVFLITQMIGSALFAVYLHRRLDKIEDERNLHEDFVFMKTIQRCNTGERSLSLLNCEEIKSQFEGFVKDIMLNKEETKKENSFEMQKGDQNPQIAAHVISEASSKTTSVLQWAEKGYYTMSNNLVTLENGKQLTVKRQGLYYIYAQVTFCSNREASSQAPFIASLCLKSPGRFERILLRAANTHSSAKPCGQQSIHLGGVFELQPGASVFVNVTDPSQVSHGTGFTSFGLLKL
Chain of gp39-CD8 fusion protein mutant N180/A (murine; human) (P01731 other isoform, or with tags, fused parts or gaps mutant): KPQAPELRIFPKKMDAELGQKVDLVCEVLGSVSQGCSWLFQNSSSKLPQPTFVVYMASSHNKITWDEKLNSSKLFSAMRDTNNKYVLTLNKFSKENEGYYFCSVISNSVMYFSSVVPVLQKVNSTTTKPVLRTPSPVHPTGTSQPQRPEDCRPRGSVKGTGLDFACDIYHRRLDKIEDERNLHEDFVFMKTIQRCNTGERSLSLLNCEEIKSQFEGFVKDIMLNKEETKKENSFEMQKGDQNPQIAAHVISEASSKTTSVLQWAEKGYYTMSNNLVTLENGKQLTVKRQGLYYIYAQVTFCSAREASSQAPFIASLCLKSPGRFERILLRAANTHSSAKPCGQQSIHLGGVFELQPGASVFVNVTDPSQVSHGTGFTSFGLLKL
Chain of gp39-CD8 fusion protein mutant E129/A (murine; human) (P01731 other isoform, or with tags, fused parts or gaps mutant): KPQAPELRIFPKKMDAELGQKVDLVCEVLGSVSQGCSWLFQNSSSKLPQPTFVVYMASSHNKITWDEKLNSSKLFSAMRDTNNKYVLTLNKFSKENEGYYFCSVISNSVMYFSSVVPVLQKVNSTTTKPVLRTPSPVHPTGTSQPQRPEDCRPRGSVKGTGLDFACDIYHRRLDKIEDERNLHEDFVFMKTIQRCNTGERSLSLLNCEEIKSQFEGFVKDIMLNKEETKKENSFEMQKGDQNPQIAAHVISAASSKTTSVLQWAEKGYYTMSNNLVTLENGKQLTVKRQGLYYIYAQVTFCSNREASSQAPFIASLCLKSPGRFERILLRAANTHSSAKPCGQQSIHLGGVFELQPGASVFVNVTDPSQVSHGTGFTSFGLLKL

In test [1], negative control monoclonal antibody gave an IgM produced, % of medium control (IgG in the next line) (% of medium control) of 87.9 and a [3H]thymidine incorporation of B cells, % of medium control (% of medium control) of 87.9.

B1: monoclonal antibody 39-1.106 (antibody, V domains shown)
VH: EVKLVESGGGLVKPGGSLKLSCTTSGFTFNNYAMSWVRQTPEKRLEWVASISSGDSTYYPDSVRGRFTISRDNARNILYLQMSSLRSEDTAMYYCARHYDYDSYAMDYWGQGTSVTVSS
VL: DIQMTQSPASLSASVGETVTITCRASETIYSYLAWYQQKQGRSPQLLVYNAKTLAEGVPSRFSGSGSGTQFSLKINSLQPEDFGSYYCQHHYNTPLTFGTGTKLELKR
B1 showed an IgM produced, % of medium control (IgG in the next line) (% of medium control) in test [1] of 17.9. Further, the [3H]thymidine incorporation of B cells, % of medium control (% of medium control) in [1] worked out at 2.9. The molecule further gave an IgG synthesis by B cells at 20 µg/ml purified mAb, % of medium control (% of medium control) in test [2] of 8. For the same molecule, the IgG synthesis at 7.53 x 10^12 binding sites/ml, % of medium only control (% of medium only control) in test [3] came out at 11. Moreover, the binding relative to wild-type gp39 in test [4] was determined as 130%; in test [5] it was 9%; in test [6] it was 52%; in test [7] it was 144%; in test [8], 113%; in test [9] it was 124%. This molecule gave a sites per cell (sites per cell) in test [10] of 10000. In test [11], this molecule registered a Kd of 0.4 nM. The molecule further had a fold greater affinity than 106 sFv-Ig in test [12] of 3 fold.

B2: monoclonal antibody 39-1.7 (antibody, V domains shown)
VH: EVQLQQSGPELVKPGASVKMSCKASGYTFTDYYMKWVKQSHGKSLEWIGNINPNNGDTFFNQKFEGKATLTVDKSSSAAYMQLNSLTSEDSAVKKCARGPGTNYFDYWGQGTTLTVSS
VL: DIVLTQSPVSLAVSLGQRVTISCRASQSVSSSTNSYMHWYQQKPGQPPKLLIKYASNLESGVPARFSGSGSGTDFTLNIHPVEEEDTATYYCQHSWEIPFTFGSGTKLEIRR
On to B2, for which the IgM produced, % of medium control (IgG in the next line) (% of medium control) in test [1] was 13.9. In addition, the [3H]thymidine incorporation of B cells, % of medium control (% of medium control) in test [1] worked out at 3.3. This molecule also gave an IgG synthesis by B cells at 20 µg/ml purified mAb, % of medium control (% of medium control) in test [2] of 17. Besides, the IgG synthesis at 7.53 x 10^12 binding sites/ml, % of medium only control (% of medium only control) in [3] was 12. Also, the binding relative to wild-type gp39 came to 70% in test [4]; 112% in test [5]; 5% in test [6]; 93% in [7]; 89% in test [8]; 106% in test [9].

For orientation: Kd means the concentration at which binding is half-saturated.

The values above are taken from patent US5876950.
